From US20060272037A1

Target: Alpha2a adrenergic receptor-cam "chameleon" (mouse)
Test: cell-based or functional assay

purified Go protein was tested, and the Kd of the agonist [^3H]UK14304 on membranes containing α2AAR-cam after addition of purified Go was 3.4 nM, the Kd of the agonist [^3H]UK14304 on the same membranes with Go after addition of GTPγS was 9.6 nM and the reduction by GTPγS of the FRET signal caused by 5 nM UK14304 in the presence of Go was > 50%. For the same substance, the reduction by GTPγS of the binding of 5 nM [^3H]UK14304 in the presence of Go was > 50%.
